The target of this experiment is HLA-A*02:01. As to the kind of experiment: IEDB peptide-MHC binding, cellular MHC/competitive/fluorescence; ≥ and ≤ were set here for values at or beyond the usual limits of such assays. The note with it: source organism: Vaccinia virus WR.

For the sequence ELMPIRTDT, the IC50 (commonly the concentration at which inhibition is half-maximal) was at least 70 µM. In turn, ELMPIRTDTT came in with an IC50 of 11.7 µM.

Turning to ELNLSKFMM, the half-inhibitory concentration (IC50) worked out at 7 µM. ELPYDENGI came in with an IC50 of 8.48 µM. ELQKFSFKIA showed an IC50 of at least 70 µM. ELTASGGKV gave a half-maximal inhibitory concentration (IC50) of 49.8 µM. The figure for ELTASGGKVL is at least 70 µM; for ELTTLSRHI it is 18.6 µM. Next, ELVFIKPPL: 28 µM; ELVNLIQAKT: at least 70 µM; EQEIESLEA: 26.3 µM. In the case of EQEIESLEAT, the 50% inhibitory concentration (IC50) amounted to 42.7 µM. The figure for EQRSTAYEI is 8.92 µM; for EQTSVFSAT it is 16.9 µM.

EQTSVFSATV had an IC50 of 28.6 µM.

In turn, ETDRENAII came in with an IC50 of 67.3 µM.

ETIGNQLYLT: the concentration for half-maximal inhibition (IC50) was 14.6 µM. In turn, ETMPCVKKKA came in with an IC50 of at least 70 µM. Sequence ETSFIFIET gave an IC50 of 8.82 µM. Next, ETSFNDKQKV: at least 70 µM; ETVSTIDGRI: at least 70 µM; EVASTHDWST: at least 70 µM. Next, EVFHCMDIL: 12 µM; EVFHCMDILT: 14.8 µM; EVFINDNGI: at least 70 µM. As for EVFINDNGIM, the IC50 was at least 70 µM.

EVFNREYNNV had a concentration for half-maximal inhibition (IC50) of 13.2 µM. In the case of EVRKYFCVKT, the half-maximal inhibitory concentration (IC50) was determined as 23.2 µM. EVSINVDST yielded an IC50 of at least 70 µM.

Sequence EVSYFTNKRT yielded an IC50 of 66.1 µM. Regarding EVVANVIGL, the 50% inhibitory concentration (IC50) was found to be 12.2 µM.

Turning to EVVVFGEAV, the IC50 was 13.4 µM. Consider FASGNSIDDI, for which the IC50 is 9.21 µM.

Sequence FIKPPLITLT came in with an IC50 of at least 70 µM.

Consider FINDRMKKDI, for which the IC50 is at least 70 µM. Take FINKLNGAM: the IC50 was determined as 57.8 µM. The sequence FIVISPMGKL displayed a half-inhibitory concentration (IC50) of 20 µM. In turn, FLDDSNKRKV gave an IC50 of 8.41 µM. Next, FTNKRTRGPL: 16.2 µM. FTNLLSKNT: the IC50 came to 13.1 µM. For FTVTNKEGV, the IC50 is 10.3 µM. For the sequence FVFYKPKHST, the IC50 is at least 70 µM. For the sequence FVKRLGPGT, the IC50 stood at 39.7 µM. The figure for GAIKCEGLDV is 49 µM; for GAIYKLGSSI it is 36.6 µM. With GAMVEYVST, the IC50 came out at 24.8 µM.

Take GASYISCTA: the half-maximal inhibitory concentration (IC50) is 7.35 µM. The sequence GATLYRFKHI came in with an IC50 of at least 70 µM. With GIAHLLEHLL, the IC50 came to 7.4 µM. In turn, GIKEDETVST returned an IC50 of 41.7 µM. Sequence GILSNYVKT returned a 50% inhibitory concentration (IC50) of at least 70 µM. For GINQEDGIII, the IC50 is at least 70 µM. Sequence GIPITIRVT returned an IC50 of 18.7 µM.

Sequence GIRVKHSFSA returned an IC50 of 6.87 µM. GIVLSNTST yielded a half-maximal inhibitory concentration (IC50) of 20.2 µM. Sequence GIVLSNTSTA yielded an IC50 of 13.1 µM.

Regarding GTETKITFA, the IC50 worked out at 60.6 µM. Take GTLDFFKQT: the IC50 was found to be 49.5 µM. GTVINEDIV displayed an IC50 of 35.7 µM. In turn, GVIFLISVI showed a concentration for half-maximal inhibition (IC50) of 12.1 µM. Take GVIFLISVIV: the IC50 turned out to be 5.83 µM. Next, GVKIRTKIPL: 12.7 µM; GVSDLISTEI: 41.8 µM; HASPTLFNA: 8.95 µM. In turn, HIDYNEDMIT showed an IC50 of 51.4 µM. Take HIHKILTREM: the half-maximal inhibitory concentration (IC50) stood at 16.2 µM. Next, HIIIVALTI: 7.72 µM; HLATPINSRI: 7.9 µM. Turning to HLLISFDST, the IC50 was found to be 28.1 µM. HLNPSRIRIT showed a 50% inhibitory concentration (IC50) of at least 70 µM. In the case of HLRDQSIKI, the IC50 came to 7.25 µM.

HLSCKSGFT gave a half-maximal inhibitory concentration (IC50) of 6.23 µM.

HMLKLQARNI: the IC50 was 24 µM. Turning to IAFSSGTVI, the IC50 was determined as 43.9 µM. Next, IAHLLEHLL: 14.1 µM; IAHLLEHLLI: 15.7 µM; IAMKVIQGI: 7.73 µM. The figure for IATYIDALA is 12.4 µM; for IIDFLEGALI it is at least 70 µM; for IIERSKKFI it is 5.31 µM. Sequence IIHTGCSQVM showed an IC50 of 12.4 µM.

Turning to IIIVALTIM, the IC50 is 9.64 µM.

Consider IIKKNDIVRV, for which the IC50 was 48.4 µM.

On to IINRDIIVI, for which the IC50 worked out at 10.8 µM.

The sequence IIPSSIPVST had a half-maximal inhibitory concentration (IC50) of 17.1 µM. Next, IIRQRNDEI: 52.8 µM; IIRRSGCRI: at least 70 µM. With IIRYPVKRI, the 50% inhibitory concentration (IC50) was 10.1 µM. Sequence IIYNANKLI gave an IC50 of 17 µM. ILANRDSTL displayed an IC50 of 11 µM. In turn, ILFLLFVCI had a concentration for half-maximal inhibition (IC50) of 5.69 µM. Regarding ILHRLHEILT, the IC50 worked out at 12.6 µM. As to ILKPRIDKTM, the concentration for half-maximal inhibition (IC50) is 49.3 µM. ILRSIEGEL: the 50% inhibitory concentration (IC50) turned out to be 8.99 µM.

In the case of ILSIVGFRPT, the IC50 turned out to be 38.1 µM. Sequence ILYKVRKNFT showed a half-maximal inhibitory concentration (IC50) of 7.65 µM. IMKTPGNTDA registered a half-inhibitory concentration (IC50) of 9.42 µM.

For the origin of these results see the Immune Epitope Database (IEDB).
